Results: PMC13378486, “Design and Synthesis of Peptide‐Polyester Conjugates for Cell‐Mediated Scaffold Degradation” (Advanced Healthcare Materials, 2026)

How the values were obtained:
[1] = test system: Collagenase Type I (Clostridium histolyticum); assay: In vitro degradation of peptide-PCL samples with collagenase; format: in vitro ADME; settings: 37°C, mean ± SD; for Mass loss in collagenase: 2 mg/mL collagenase in ZB, 21 days, washed, lyophilized, weighed, n = 4; for Cumulative Cy3 release / Cumulative Cy3 release as % of the total Cy3 in the sample: 10 mm solvent-cast disks, 2 mg/mL collagenase in 1X ZB, 5% CO2, 21 days, fluorescence ex 550/em 580 nm, n = 6
Description: (§1) Samples were pinned to silicone elastomer‐coated 24‐well plates using 0.1 mm dissection pins. The degradation behavior of the samples in the presence of collagenase was assessed by immersing pinned samples in 2 mg/mL collagenase in 1X Zymogram Developing Buffer (ZB). Solutions (1 mL) were collected and changed after the first day of incubation then after every 3–4 days. Samples were placed in an incubator (37°C, 5% CO2) for up to 21 days. Samples were also exposed to ZB as a baseline control.
(§2) Samples were weighed before and after 21 days of incubation with ZB or collagenase. After the 21‐day incubation period, samples were collected and washed three times with ultrapure water to remove residual enzymes or salts. Following washing, samples were lyophilized and subsequently weighed to determine the final mass. Percent mass loss was calculated based on the difference between initial and final masses.

[2] = format: in vitro ADME
Description: as §1, §2

[3] = test system: multiple cell types; settings: prior peptide screening methods; cited from earlier work
From the text: We also included a scrambled version of Fast (LTRLMEKRRKV; ScrFast) in which the positions of uncharged amino acids (L, M, V) were exchanged with the charged amino acids (E, K, R). We quantified degradation of these four peptides with different mac ...

Substance | Mass loss in collagenase [1] | Cumulative Cy3 release [1] | Cumulative Cy3 release as % of the total Cy3 in the sample [1] | Mass loss in ZB [2] | Peptide degradation behavior in prior peptide screening [3]
CK(Cy3)LTRLMEKRRKVC [ScrFast‐PCL, linear PCL‐PEG‐peptide‐PEG‐PCL conjugate of Cy3‐modified ScrFast; tested as solvent‐cast disks with RGDS‐PCL] | 18.9% ± 3.8% | 8.70 ± 0.92 nmol | 11.31% ± 1.01% | 15.2% ± 7.8% | 
PPDKTSPEPA [Control] |  |  |  |  | negligible degradation behavior
CK(Cy3)KRVKRRL↓LMETC [Fast‐PCL, linear PCL‐PEG‐peptide‐PEG‐PCL conjugate of Cy3‐modified Fast with maleimide‐functionalized PCL (25 kDa) / PEG (5 kDa); tested as solvent‐cast disks with RGDS‐PCL] | 22.1% ± 1.2% | 20.38 ± 2.17 nmol | 25.77% ± 3.70% | 16.5% ± 1.6% | 
